Results published in patent US11325966.

Assays:
Assay in all cases: cell-based or functional assay
BG505 (T332N) (HIV-1) = molecular target: BG505 (T332N) (HIV-1)
[1] = molecular target: BG505 (T332N) N301A (HIV-1)
[2] = molecular target: BG505 (T332N) N386A (HIV-1)
JR-CSF (HIV-1) = JR-CSF (HIV-1) (UniProt P20871)
[3] = molecular target: HIV-1 envelope (Env) of pseudovirus 1054_07_TC4_1499 (HIV-1)
[4] = molecular target: HIV-1 envelope (Env) of pseudovirus 1394C9G1 (Rev-) (HIV-1)
[5] = molecular target: HIV-1 envelope (Env) of pseudovirus 191084 B7-19 (HIV-1)
[6] = molecular target: HIV-1 envelope (Env) of pseudovirus 191821_E6_1 (HIV-1)
[7] = molecular target: HIV-1 envelope (Env) of pseudovirus 231966.c02 (HIV-1)
[8] = molecular target: HIV-1 envelope (Env) of pseudovirus 249M B10 (HIV-1)
[9] = molecular target: HIV-1 envelope (Env) of pseudovirus 3016.v5.c45 (HIV-1)
[10] = molecular target: HIV-1 envelope (Env) of pseudovirus 6535.3 (HIV-1)
[11] = molecular target: HIV-1 envelope (Env) of pseudovirus 9004SS_A3_4 (HIV-1)
[12] = molecular target: HIV-1 envelope (Env) of pseudovirus BF1266.431a (HIV-1)
[13] = molecular target: HIV-1 envelope (Env) of pseudovirus C2101.c01 (HIV-1)
[14] = molecular target: HIV-1 envelope (Env) of pseudovirus C4118.c09 (HIV-1)
[15] = molecular target: HIV-1 envelope (Env) of pseudovirus HIV-16055-2.3 (HIV-1)
[16] = molecular target: HIV-1 envelope (Env) of pseudovirus HIV-16845-2.22 (HIV-1)
[17] = molecular target: HIV-1 envelope (Env) of pseudovirus PVO.4 (HIV-1)
[18] = molecular target: HIV-1 envelope (Env) of pseudovirus Q461.e2 (HIV-1)
[19] = molecular target: HIV-1 envelope (Env) of pseudovirus QH0692.42 (HIV-1)
[20] = molecular target: HIV-1 envelope (Env) of pseudovirus R3265.c06 (HIV-1)
[21] = molecular target: HIV-1 envelope (Env) of pseudovirus T250-4 (HIV-1)
[22] = molecular target: HIV-1 envelope (Env) of pseudovirus T257-31 (HIV-1)
[23] = molecular target: HIV-1 envelope (Env) of pseudovirus T278-50 (HIV-1)
[24] = molecular target: HIV-1 envelope (Env) of pseudovirus TRO.11 (HIV-1)
[25] = molecular target: HIV-1 envelope (Env) of pseudovirus WEAU_d15_410_787 (HIV-1)
[26] = molecular target: HIV-1 envelope (Env) of pseudovirus X1193_c1 (HIV-1)
[27] = molecular target: HIV-1 envelope (Env) of pseudovirus X2088_c9 (HIV-1)
[28] = molecular target: HIV-1 envelope (Env) of pseudovirus YU2_WT (HIV-1) (UniProt P35961)
[29] = molecular target: HIV-1 envelope (Env) of pseudovirus ZM109F.PB4 (HIV-1)
[30] = molecular target: HIV-1 envelope (Env) of pseudovirus ZM135M.PL10a (HIV-1)
[31] = molecular target: HIV-1 envelope (Env) of pseudovirus ZM197M.PB7 (HIV-1)
[32] = molecular target: HIV-1 envelope (Env) of pseudovirus ZM249M.PL1 (HIV-1)
[33] = molecular target: HIV-1 Env of pseudovirus 1394C9G1 (Rev-) (HIV-1)
[34] = molecular target: HIV-1 Env of pseudovirus BG505/T332N (HIV-1)
[35] = molecular target: HIV-1 YU2 Env N280Y, on pseudovirus (HIV-1) (UniProt P35961)
[36] = molecular target: HIV-1 YU2 Env N332K, on pseudovirus (HIV-1) (UniProt P35961)
[37] = molecular target: HIV-1 Env of pseudovirus C3347.H1 (HIV-1)

354BG8 (antibody)
IC50 in TZM-bl assay (BG505 (T332N) (HIV-1)): 0.007 µg/mL | IC50 in TZM-bl assay [1]: 0.004 µg/mL | IC50 in TZM-bl assay [2]: 0.004 µg/mL | IC50 in TZM-bl assay (JR-CSF (HIV-1)): 0.009 µg/mL

BG1 (antibody)
IC50 in TZM-bl assay [3]: > 30 µg/mL | IC80 in TZM-bl assay [3]: > 30 µg/mL | IC50 in TZM-bl assay [4]: 1.28 µg/mL | IC80 in TZM-bl assay [4]: 7.25 µg/mL | IC50 in TZM-bl assay [5]: > 30 µg/mL | IC80 in TZM-bl assay [5]: > 30 µg/mL | IC50 in TZM-bl assay [6]: > 30 µg/mL | IC80 in TZM-bl assay [6]: > 30 µg/mL | IC50 in TZM-bl assay [7]: > 30 µg/mL | IC80 in TZM-bl assay [7]: > 30 µg/mL | IC50 in TZM-bl assay [8]: 1.47 µg/mL | IC80 in TZM-bl assay [8]: 5.45 µg/mL | IC50 in TZM-bl assay [9]: > 30 µg/mL | IC80 in TZM-bl assay [9]: > 30 µg/mL | IC50 in TZM-bl assay [10]: 0.322 µg/mL | IC80 in TZM-bl assay [10]: 1.13 µg/mL | IC50 in TZM-bl assay [11]: > 30 µg/mL | IC80 in TZM-bl assay [11]: > 30 µg/mL | IC50 in TZM-bl assay [12]: > 30 µg/mL | IC80 in TZM-bl assay [12]: > 30 µg/mL | IC50 in TZM-bl assay [13]: > 30 µg/mL | IC80 in TZM-bl assay [13]: > 30 µg/mL | IC50 in TZM-bl assay [14]: 22.8 µg/mL | IC80 in TZM-bl assay [14]: > 30 µg/mL | IC50 in TZM-bl assay [15]: 4.3 µg/mL | IC80 in TZM-bl assay [15]: 16.9 µg/mL | IC50 in TZM-bl assay [16]: > 30 µg/mL | IC80 in TZM-bl assay [16]: > 30 µg/mL | IC50 in TZM-bl assay [17]: > 30 µg/mL | IC80 in TZM-bl assay [17]: > 30 µg/mL | IC50 in TZM-bl assay [18]: > 30 µg/mL | IC80 in TZM-bl assay [18]: > 30 µg/mL | IC50 in TZM-bl assay [19]: > 30 µg/mL | IC80 in TZM-bl assay [19]: > 30 µg/mL | IC50 in TZM-bl assay [20]: 0.611 µg/mL | IC80 in TZM-bl assay [20]: 3.44 µg/mL | IC50 in TZM-bl assay [21]: 3.92 µg/mL | IC80 in TZM-bl assay [21]: > 30 µg/mL | IC50 in TZM-bl assay [22]: > 30 µg/mL | IC80 in TZM-bl assay [22]: > 30 µg/mL | IC50 in TZM-bl assay [23]: 19.3 µg/mL | IC80 in TZM-bl assay [23]: > 30 µg/mL | IC50 in TZM-bl assay [24]: > 30 µg/mL | IC80 in TZM-bl assay [24]: > 30 µg/mL | IC50 in TZM-bl assay [25]: > 30 µg/mL | IC80 in TZM-bl assay [25]: > 30 µg/mL | IC50 in TZM-bl assay [26]: 0.138 µg/mL | IC80 in TZM-bl assay [26]: 0.463 µg/mL | IC50 in TZM-bl assay [27]: > 30 µg/mL | IC80 in TZM-bl assay [27]: > 30 µg/mL | IC50 in TZM-bl assay [28]: 15.8 µg/mL | IC80 in TZM-bl assay [28]: > 30 µg/mL | IC50 in TZM-bl assay [29]: > 30 µg/mL | IC80 in TZM-bl assay [29]: > 30 µg/mL | IC50 in TZM-bl assay [30]: > 30 µg/mL | IC80 in TZM-bl assay [30]: > 30 µg/mL | IC50 in TZM-bl assay [31]: > 30 µg/mL | IC80 in TZM-bl assay [31]: > 30 µg/mL | IC50 in TZM-bl assay [32]: 1.22 µg/mL | IC80 in TZM-bl assay [32]: 6.79 µg/mL

BG18 IgG (354BG18) (antibody)
IC50 in TZM-bl assay [33]: 0.029 µg/mL | IC80 in TZM-bl assay [33]: 0.35 µg/mL | IC50 in TZM-bl assay [34]: < 0.0001 µg/mL | IC80 in TZM-bl assay [34]: 0.002 µg/mL | IC50 in TZM-bl assay [35]: 0.005 µg/mL | IC80 in TZM-bl assay [35]: 0.016 µg/mL | IC50 in TZM-bl assay [36]: > 30 µg/mL | IC80 in TZM-bl assay [36]: > 30 µg/mL

PGT121 (antibody)
IC50 in TZM-bl assay [37]: > 10 µg/mL | IC80 in TZM-bl assay [37]: > 10 µg/mL
